From patent US8105605B2, “Allergen formulation” (Allergy Therapeutics (UK) Ltd., priority 1997, dated 2012)

Legend:
[1] = system: allergen specific IgE antibody (ovalbumin); test: anti-IgE capture ELISA with biotinylated ovalbumin probe on serum of immunised mice; assay type: in vivo, BALB/c female mice; conditions: BALB/c mice, 0.2 mL s.c., boosted at day 21, bled 14 days after booster; serum at 1/10 dilution
Method: (§1) TH1 inducing activity in mice can be equated with the production of IgG2a and IgG2b antibodies and the TH2 inducing activity with the production of IgG 1 antibodies and IgE antibodies.
(§2) Groups of 8 BALB/c female mice, 6-8 weeks of age, were injected subcutaneously in the inguinal area with 0.2 mL of one of the following vaccines:
(§3) XOA+Tyrosine: The XOA tyrosine adsorbate prepared in Preparation 2 above was diluted with an equal volume of phosphate buffered saline within 30 min prior to injection.
XOA+Tyrosine+MPL: The XOA tyrosine adsorbate prepared in Preparation 2 above was diluted with an equal volume of MPL®-AF at 500 μg/mL in phosphate buffered saline within 30 min prior to injection. […]
(§4) The sera were assayed by conventional ELISA technique using horseradish conjugated goat anti-mouse IgG1, IgG2a, and IgG2b antibodies purchased from Southern Biotechnology, Inc. (Birmingham, Ala.) and used according to the manufacturer's instruction. The IgG1, IgG2a, and IgG2b titers represent the reciprocal serum dilution giving a reading of >0.1 OD units at A490. The serum IgE levels were measured using an anti-IgE capture ELISA followed by the use of a biotinylated ovalbumin probe. Binding was measured following the addition of a horseradish conjugated strepavidin preparation.

[2] = system: allergen specific antibodies to ovalbumin (XOA): IgG1, IgG2a, IgG2b; test: ELISA of serum IgG1, IgG2a and IgG2b antibodies after subcutaneous immunisation and booster of mice; assay type: in vivo, BALB/c female mice; conditions: BALB/c mice, 0.2 mL s.c., boosted at day 21, bled 14 days after booster
Method: as §1, §2, §3
XOA+Tyrosine+MPL: The XOA tyrosine adsorbate prepared in Preparation 2 above was diluted with an equal volume of MPL®-AF at 500 μg/mL in phosphate buffered saline within 30 min prior to injection.
XOA+MPL: XOA was dissolved in phosphate buffered saline at 200 μg/mL and diluted with an equal volume of MPL®-AF at 500 μg/mL in phosphate buffered saline within 30 min prior to injection.
XOA Alone: XOA was dissolved at 200 μg/mL in phosphate buffered saline and diluted with an equal volume of phosphate buffered saline.
Twenty-one days later the four groups of mice were boosted with 0.2 mL of freshly prepared vaccines. Fourteen days following the booster the mice were bled and the sera separated and stored at −70° C. until assay.
as §4

B1: ovalbumin (protein, UniProt P01012 2-386, looked up)
Ovalbumin: GSIGAASMEFCFDVFKELKVHHANENIFYCPIAIMSALAMVYLGAKDSTRTQINKVVRFDKLPGFGDSIEAQCGTSVNVHSSLRDILNQITKPNDVYSFSLASRLYAEERYPILPEYLQCVKELYRGGLEPINFQTAADQARELINSWVESQTNGIIRNVLQPSSVDSQTAMVLVNAIVFKGLWEKAFKDEDTQAMPFRVTEQESKPVQMMYQIGLFRVASMASEKMKILELPFASGTMSMLVLLPDEVSGLEQLESIINFEKLTEWTSSNVMEERKIKVYLPRMKMEEKYNLTSVLMAMGITDVFSSSANLSGISSAESLKISQAVHAAHAEINEAGREVVGSAEAGVDAASVSEEFRADHPFLFCIKHIATNAVLFFGRCVSP
notes: ovalbumin (XOA), a food allergen from chicken eggs, 200 μg/mL in phosphate buffered saline diluted with an equal volume of PBS
IgE OD at 1/10 Dilution [1]: 0.235 OD units at A490 | IgG1 titer (reciprocal serum dilution giving a reading of >0.1 OD units at A490) [2]: 6400 | IgG2a Titer (reciprocal serum dilution giving a reading of >0.1 OD units at A490) [2]: <100 | IgG2b Titer (reciprocal serum dilution giving a reading of >0.1 OD units at A490) [2]: <100
